Reference: patent US20100221257A1 (AstraZeneca / MedImmune, published 2010)

Key:
[1] = molecular target: T1, human IL-1R1, endogenous on human cells (HeLa cells; whole blood) (human, UniProt P14778 18-569); assay: cell-based or functional assay
T1 sequence (looked up): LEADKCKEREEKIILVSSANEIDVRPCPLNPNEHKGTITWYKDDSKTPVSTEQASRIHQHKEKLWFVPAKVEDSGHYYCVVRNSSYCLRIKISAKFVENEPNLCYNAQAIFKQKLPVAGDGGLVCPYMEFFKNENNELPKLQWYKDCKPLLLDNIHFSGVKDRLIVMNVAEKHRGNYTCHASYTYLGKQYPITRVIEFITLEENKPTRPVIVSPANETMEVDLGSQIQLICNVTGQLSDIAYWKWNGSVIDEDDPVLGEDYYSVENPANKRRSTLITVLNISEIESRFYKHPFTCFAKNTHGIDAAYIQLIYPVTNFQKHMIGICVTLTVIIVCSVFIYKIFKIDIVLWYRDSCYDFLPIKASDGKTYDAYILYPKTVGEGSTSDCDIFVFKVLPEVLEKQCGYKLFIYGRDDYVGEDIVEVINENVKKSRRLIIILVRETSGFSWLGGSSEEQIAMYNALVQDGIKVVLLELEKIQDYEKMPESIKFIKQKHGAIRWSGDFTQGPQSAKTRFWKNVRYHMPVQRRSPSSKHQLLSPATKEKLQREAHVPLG

[2] = molecular target: T2, cynomolgus IL-1R1, endogenous on CYNOM-K1 cells (cynomolgus monkey, UniProt A0A7N9CMI5 18-569); assay: cell-based or functional assay
T2 sequence: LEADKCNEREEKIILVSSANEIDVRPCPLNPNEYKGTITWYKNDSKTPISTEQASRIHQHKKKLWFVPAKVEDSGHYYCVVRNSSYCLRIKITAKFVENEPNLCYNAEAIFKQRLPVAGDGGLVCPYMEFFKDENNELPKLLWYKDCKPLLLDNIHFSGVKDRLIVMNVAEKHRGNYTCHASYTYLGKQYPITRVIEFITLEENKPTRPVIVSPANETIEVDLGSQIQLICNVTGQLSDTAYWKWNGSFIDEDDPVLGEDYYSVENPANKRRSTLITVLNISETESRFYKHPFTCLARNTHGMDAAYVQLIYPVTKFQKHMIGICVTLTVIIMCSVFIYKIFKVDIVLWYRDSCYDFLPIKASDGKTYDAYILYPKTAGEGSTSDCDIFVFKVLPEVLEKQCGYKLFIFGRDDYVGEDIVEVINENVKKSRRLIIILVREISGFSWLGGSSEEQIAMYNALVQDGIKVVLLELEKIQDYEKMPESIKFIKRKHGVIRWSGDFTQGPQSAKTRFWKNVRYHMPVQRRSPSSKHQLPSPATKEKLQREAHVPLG

[3] = molecular target: T3, human recombinant IL-1R6/IL1 R rp2/Fc (human, UniProt Q9HB29 20-335, limits assumed); assay: DELFIA epitope competition; no inhibition of biotinylated huIL-1RFc binding to the adsorbed IgG
T3 construct: Bought; also called Human IL1R6Fc; not shown: Fc of the bought fusion protein, not described
T3 sequence (looked up): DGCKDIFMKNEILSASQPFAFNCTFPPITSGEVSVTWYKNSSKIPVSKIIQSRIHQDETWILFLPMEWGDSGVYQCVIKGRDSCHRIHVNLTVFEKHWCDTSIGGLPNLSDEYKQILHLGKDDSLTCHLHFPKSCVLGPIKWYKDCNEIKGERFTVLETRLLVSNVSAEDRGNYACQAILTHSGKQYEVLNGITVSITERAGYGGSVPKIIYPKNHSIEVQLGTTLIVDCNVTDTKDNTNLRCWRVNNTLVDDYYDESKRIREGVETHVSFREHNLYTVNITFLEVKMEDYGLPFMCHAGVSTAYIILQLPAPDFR
Description: (§1) Titrations of non biotinylated purified human recombinant IL1sRII (R&D Systems), human recombinant IL-1R6/IL1 R rpt/Fc (R&D Systems), human recombinant IL18R alpha/IL-1 R5/Fc (R&D systems) and recombinant human IL-1 R4 (ST2)/Fc (R&D systems) were tested in each assay to establish the potency for each structurally related family member, as measured by IC₅₀ values in the assay.
(§2) Purified IgG were adsorbed onto 96-well Maxisorp microtitre plates (Nunc) in PBS at a concentration which gave a significant signal when biotinylated human HIS IL1RFc was added at approximately its estimated KD for that particular IgG. Excess IgG was washed away with PBS-Tween (0.1% v/v) and the wells were blocked with non-fat dried milk in PBS (3% w/v) for 1 h. […] Non-biotinylated human HIS IL1RFc was included as a positive control. 25 μl of this dilution series was added to the blocked IgG assay plate.
(§3) 25 μl of 1.4 nM biotinylated human HIS IL1RFc was added to the assay plate. The plate was then sealed and incubated at room temperature for 2 h. Unbound antigen was removed by washing with PBS-Tween (0.1% v/v), while the remaining biotinylated human IL1RFc was detected by streptavidin-Europium3+ conjugate (DELFIA® detection, PerkinElmer). Time-resolved fluorescence was measured at 620 nm on an EnVision plate reader (PerkinElmer). Fluorescence data was plotted as europium counts. IC₅₀ values were determined using GraphPad Prism software by curve fitting using a four-parameter logistic equation (Equation 3).

[4] = molecular target: T4, recombinant human IL-1 R4 (ST2)/Fc (human, UniProt Q01638-2 19-328, limits assumed); assay: as above
T4 construct: Bought; not shown: Fc of the bought fusion protein, not described
T4 sequence (looked up): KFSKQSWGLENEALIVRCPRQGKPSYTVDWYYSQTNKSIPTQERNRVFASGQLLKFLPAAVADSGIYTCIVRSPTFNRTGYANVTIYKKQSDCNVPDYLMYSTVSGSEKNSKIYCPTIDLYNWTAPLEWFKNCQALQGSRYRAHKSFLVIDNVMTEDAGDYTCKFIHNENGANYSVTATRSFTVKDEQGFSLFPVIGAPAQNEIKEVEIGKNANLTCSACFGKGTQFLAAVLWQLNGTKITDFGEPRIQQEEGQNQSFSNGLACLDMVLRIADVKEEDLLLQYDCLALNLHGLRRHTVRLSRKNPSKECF
Description: as §1, §2, §3

B1: Antibody 6GL IgG2 (antibody, V domains shown)
VH: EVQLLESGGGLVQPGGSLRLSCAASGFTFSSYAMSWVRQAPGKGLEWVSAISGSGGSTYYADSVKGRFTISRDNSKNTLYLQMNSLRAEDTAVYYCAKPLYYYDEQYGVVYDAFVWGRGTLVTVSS
VL: QSVLTQPPSVSGAPGQRVTISCTGSSSNIGAGYDVHWYQQLPGTAPKLLIYGDTHRPSGVPDRFSGSKSGTSASLAITGLQAEDEADYYCQSYDTVRLHHVFGGGTKLTVL
notes: Germlined IgG2, lambda light chain; also called Antibody 6 IgG2; 28PL GL
- IC50, inhibition of IL-1 alpha induced IL-8 release in HeLa cells (GL IgG2) [1]: 0.0031 nM
- IC50, inhibition of IL-1 beta induced IL-8 release in HeLa cells (GL IgG2) [1]: 0.0119 nM
- IC50, inhibition of IL-1β induced IL-8 release from CYNOM-K1 cells, experiment 1 [2]: 0.8 nM
- IC50, inhibition of IL-1β induced IL-8 release from CYNOM-K1 cells, experiment 2 [2]: 0.6 nM
- binding result [3]: no binding
- binding result [4]: no binding

B2: Antibody 8GL IgG2 (antibody, V domains shown)
VH: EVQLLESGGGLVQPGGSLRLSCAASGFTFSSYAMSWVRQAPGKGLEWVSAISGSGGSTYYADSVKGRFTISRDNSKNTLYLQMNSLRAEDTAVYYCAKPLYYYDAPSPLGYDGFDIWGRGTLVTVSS
VL: QSVLTQPPSVSGAPGQRVTISCTGSSSNIGAGYDVHWYQQLPGTAPKLLIYGDTHRPSGVPDRFSGSKSGTSASLAITGLQAEDEADYYCQSYDTHLVAHVFGGGTKLTVL
notes: Germlined IgG2, lambda light chain
- IC50, inhibition of IL-1 alpha induced IL-8 release in HeLa cells (GL IgG2) [1]: 0.197 nM
- IC50, inhibition of IL-1 beta induced IL-8 release in HeLa cells (GL IgG2) [1]: 0.0419 nM
- IC50, inhibition of IL-1β induced IL-8 release from CYNOM-K1 cells, experiment 1 [2]: 4.2 nM
- IC50, inhibition of IL-1β induced IL-8 release from CYNOM-K1 cells, experiment 2 [2]: 2.5 nM
- binding result [3]: no binding
- binding result [4]: no binding

B3: Antibody 10GL IgG2 (antibody, V domains shown)
VH: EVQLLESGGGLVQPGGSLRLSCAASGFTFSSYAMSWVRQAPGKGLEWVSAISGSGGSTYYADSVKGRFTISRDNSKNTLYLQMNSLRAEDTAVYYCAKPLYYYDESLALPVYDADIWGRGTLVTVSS
VL: QSVLTQPPSVSGAPGQRVTISCTGSSSNIGAGYDVHWYQQLPGTAPKLLIYGDTHRPSGVPDRFSGSKSGTSASLAITGLQAEDEADYYCQSYDTRADDAHFGGGTKLTVL
notes: as for B2
- IC50, inhibition of IL-1 alpha induced IL-8 release in HeLa cells (GL IgG2) [1]: 0.0138 nM
- IC50, inhibition of IL-1 beta induced IL-8 release in HeLa cells (GL IgG2) [1]: 0.0242 nM
- IC50, inhibition of IL-1β induced IL-8 release from CYNOM-K1 cells, experiment 1 [2]: 0.9 nM
- IC50, inhibition of IL-1β induced IL-8 release from CYNOM-K1 cells, experiment 2 [2]: 0.7 nM
- binding result [3]: no binding
- binding result [4]: no binding
